Drawing on patent publication US20120288914A1, “CRYSTAL STRUCTURE OF GLYPHOSATE ACETYLTRANSFERASE (GLYAT) AND METHODS OF USE” (PIONEER HI BRED INTERNATIONAL INC., priority 2009, published 2012), this text covers mode of inhibition and Km for 4 molecules.

Data set [1] deals with R7 GLYAT. Put plainly: inhibition of R7 GLYAT with respect to glyphosate. The class given is biochemical, B. licheniformis. The source says: See PDB:2JDD for the atomic coordinates and structure factors of the X-ray crystal structure of the ternary complex of R7 GLYAT with AcCoA and 3PG and PDB:2JDC for the atomic coordinates and structure factors of the X-ray crystal structure of the binary complex of R7 GLYAT with oxidized CoA and sulfate bound in the glyphosate binding pocket. See Tables 11 and 12 for the atoms of the R7 GLYAT variant polypeptide and of AcCoA that contact 3PG (i.e., the substrate binding cavity) and the residues of R7 that contact AcCoA, respectively.

For data set [2] the following is noted: substrate glyphosate; cited from earlier work.

Consider `O=C(O)[C@H](O)COP(=O)(O)O` [3-phosphoglycerate], for which, in data set [1], the mode of inhibition result was “competitive inhibitor”.

B1: native GLYAT: naturally occurring glyphosate N-acetyltransferase from Bacillus licheniformis; SEQ ID NO: 3 (protein, listed as Bacillus licheniformis)
chain: MIEVKPINAEDTYEIRHRILRPNQPLEACMYETDLLGGAFHLGGYYRGKLISIASFHKAEHSELEGEEQYQLRGMATLEGYREQKAGSTLIRHAEELLRKKGADLLWCNARTSVSGYYEKLGFSEQGEVYDIPPIGPHILMYKKLT
modifications: ST401 GAT
The term Km denotes the concentration of substrate that gives half-maximal velocity. Regarding B1, the Km in data set [2] is 1270 µM.

B2: R11: GLYAT variant from the eleventh round of DNA shuffling; SEQ ID NO: 2 (protein)
chain: MIEVKPINAEDTYDLRHRVLRPNQPIEACMFESDLTRSAFHLGGFYGGKLISVASFHQAEHSELQGKKQYQLRGVATLEGYREQKAGSSLVKHAEEILRKRGADMIWCNARTSASGYYRKLGFSEQGEVFDTPPVGPHILMYKRIT
modifications: R11 GLYAT variant polypeptide
Take B2: the Michaelis constant (Km) in data set [2] is 55 µM.

B3: R7: GLYAT variant resulting from seven rounds of DNA shuffling of a native GLYAT polypeptide; SEQ ID NO: 1 (protein)
chain: MIEVKPINAEDTYELRHRILRPNQPIEACMFESDLLRGAFHLGGYYGGKLISIASFHQAEHSELQGQKQYQLRGMATLEGYREQKAGSSLIKHAEEILRKRGADLLWCNARTSASGYYKKLGFSEQGEVFDTPPVGPHILMYKRIT
modifications: R7 GLYAT variant polypeptide
Turning to B3, in data set [2], the Km is 240 µM.
